Experimental data taken from patent publication EP4635976A1 (Medigene Immunotherapies GmbH, dated 2025).

Legend:
Experiment in all cases: cell-based or functional assay
[1] = molecular target: mismatched peptide #116 …
[2] = molecular target: mismatched peptide #79 …
[3] = molecular target: mismatched peptide #314 …
[4] = molecular target: mismatched peptide #228 …
[5] = molecular target: mismatched peptide #221 …
[6] = molecular target: mismatched peptide #244 …
[7] = molecular target: mismatched peptide #246 …
[8] = molecular target: mismatched peptide #24 …
[9] = molecular target: mismatched peptide #324 …
[10] = molecular target: mismatched peptide #9 …
[11] = molecular target: mismatched peptide #239 …
[12] = molecular target: mismatched peptide #323 …
[13] = molecular target: mismatched peptide #13 …
[14] = molecular target: mismatched peptide #243 …
[15] = molecular target: mismatched peptide #45 …
[16] = molecular target: mismatched peptide #15 …
[17] = molecular target: mismatched peptide #247 …
[18] = molecular target: mismatched peptide #257 …
[19] = molecular target: mismatched peptide #240 …
[20] = molecular target: mismatched peptide #31 …
[21] = molecular target: mismatched peptide #8 …
[22] = molecular target: mismatched peptide #160 …
[23] = molecular target: mismatched peptide #76 …
[24] = molecular target: mismatched peptide #236 …
[25] = molecular target: mismatched peptide #265 …
[26] = molecular target: mismatched peptide #7 …
[27] = molecular target: mismatched peptide #62 …
[28] = molecular target: mismatched peptide #278 …
[29] = molecular target: mismatched peptide #41 …

IFN-γ release (IFNg-ELISA), donor MIT 045 [1]: 32.4 pg/mL | IFN-γ release (IFNg-ELISA), donor MIT038 [2]: 292 pg/mL | IFN-γ release (IFNg-ELISA), donor MIT 045 [2]: 40.3 pg/mL | IFN-γ release (IFNg-ELISA), donor MIT 045 [3]: 26.7 pg/mL | IFN-γ release (IFNg-ELISA), donor MIT038 [4]: 234 pg/mL | IFN-γ release (IFNg-ELISA), donor MIT 045 [4]: 35.4 pg/mL | IFN-γ release (IFNg-ELISA), donor MIT038 [5]: 789 pg/mL | IFN-γ release (IFNg-ELISA), donor MIT 045 [5]: 101 pg/mL | IFN-γ release (IFNg-ELISA), donor MIT038 [6]: 441 pg/mL | IFN-γ release (IFNg-ELISA), donor MIT 045 [6]: 45.4 pg/mL | IFN-γ release (IFNg-ELISA), donor MIT038 [7]: 321 pg/mL | IFN-γ release (IFNg-ELISA), donor MIT 045 [7]: 40.9 pg/mL | IFN-γ release (IFNg-ELISA), donor MIT 045 [8]: 24.3 pg/mL | IFN-γ release (IFNg-ELISA), donor MIT038 [9]: 432 pg/mL | IFN-γ release (IFNg-ELISA), donor MIT 045 [10]: 26.5 pg/mL | IFN-γ release (IFNg-ELISA), donor MIT038 [11]: 229 pg/mL | IFN-γ release (IFNg-ELISA), donor MIT 045 [11]: 32.1 pg/mL | IFN-γ release (IFNg-ELISA), donor MIT038 [12]: 3700 pg/mL | IFN-γ release (IFNg-ELISA), donor MIT 045 [12]: 658 pg/mL | IFN-γ release (IFNg-ELISA), donor MIT 045 [13]: 20.8 pg/mL | IFN-γ release (IFNg-ELISA), donor MIT038 [14]: 380 pg/mL | IFN-γ release (IFNg-ELISA), donor MIT 045 [14]: 47.2 pg/mL | IFN-γ release (IFNg-ELISA), donor MIT038 [15]: 1500 pg/mL | IFN-γ release (IFNg-ELISA), donor MIT 045 [15]: 177 pg/mL | IFN-γ release (IFNg-ELISA), donor MIT038 [16]: 282 pg/mL | IFN-γ release (IFNg-ELISA), donor MIT 045 [16]: 47.1 pg/mL | IFN-γ release (IFNg-ELISA), donor MIT038 [17]: 681 pg/mL | IFN-γ release (IFNg-ELISA), donor MIT 045 [17]: 80.5 pg/mL | IFN-γ release (IFNg-ELISA), donor MIT038 [18]: 383 pg/mL | IFN-γ release (IFNg-ELISA), donor MIT 045 [18]: 57.9 pg/mL | IFN-γ release (IFNg-ELISA), donor MIT038 [19]: 237 pg/mL | IFN-γ release (IFNg-ELISA), donor MIT 045 [19]: 23.4 pg/mL | IFN-γ release (IFNg-ELISA), donor MIT038 [20]: 2130 pg/mL | IFN-γ release (IFNg-ELISA), donor MIT 045 [20]: 887 pg/mL | IFN-γ release (IFNg-ELISA), donor MIT 045 [21]: 24.7 pg/mL | IFN-γ release (IFNg-ELISA), donor MIT038 [22]: 3620 pg/mL | IFN-γ release (IFNg-ELISA), donor MIT 045 [22]: 1290 pg/mL | IFN-γ release (IFNg-ELISA), donor MIT038 [23]: 769 pg/mL | IFN-γ release (IFNg-ELISA), donor MIT 045 [23]: 150 pg/mL | IFN-γ release (IFNg-ELISA), donor MIT038 [24]: 256 pg/mL | IFN-γ release (IFNg-ELISA), donor MIT 045 [24]: 32.3 pg/mL | IFN-γ release (IFNg-ELISA), donor MIT038 [25]: 366 pg/mL | IFN-γ release (IFNg-ELISA), donor MIT 045 [25]: 43.2 pg/mL | IFN-γ release (IFNg-ELISA), donor MIT 045 [26]: 24 pg/mL | IFN-γ release (IFNg-ELISA), donor MIT038 [27]: 819 pg/mL | IFN-γ release (IFNg-ELISA), donor MIT 045 [27]: 88.3 pg/mL | IFN-γ release (IFNg-ELISA), donor MIT038 [28]: 464 pg/mL | IFN-γ release (IFNg-ELISA), donor MIT 045 [28]: 50.8 pg/mL | IFN-γ release (IFNg-ELISA), donor MIT038 [29]: 298 pg/mL | IFN-γ release (IFNg-ELISA), donor MIT 045 [29]: 55.6 pg/mL
B1: NY-ESO specific TCR (T11.8-10-17), wild type (TCR)
TCR alpha: QKEVEQNSGPLSVPEGAIASLNCTYSDRGSQSFFWYRQYSGKSPELIMFIYSNGDKEDGRFTAQLNKASQYVSLLIRDSQPSDSATYLCAADDKIIFGKGTRLHILPNIQNPDPAVYQLRDSKSSDKSVCLFTDFDSQTNVSQSKDSDVYITDKTVLDMRSMDFKSNSAVAWSNKSDFACANAFNNSIIPEDTFFPSSDVPCDVKLVEKSFETDTNLNFQNLSVIGFRILLLKVAGFNLLMTLRLWSS
TCR beta: DAGVIQSPRHEVTEMGQEVTLRCKPISGHDYLFWYRQTMMRGLELLIYFNNNVPIDDSGMPEDRFSAKMPNASFSTLKIQPSEPRDSAVYFCASSRGGSGYTFGSGTRLTVVEDLNKVFPPEVAVFEPSKAEIAHTQKATLVCLATGFFPDHVELSWWVNGKEVHSGVSTDPQPLKEQPALNDSRYCLSSRLRVSATFWQNPRNHFRCQVQFYGLSENDEWTQDRAKPVTQIVSAEAWGRADCGITSASYHQGVLSATILYEILLGKATLYAVLVSALVLMAMVKRKDF
